# Measured values from paper PMC3530388 (Journal of the American Chemical Society, 2012).
# B1: dihydroneopterin aldolase from Mycobacterium tuberculosis H37Rv (enzyme)
# chain: MADRIELRGLTVHGRHGVYDHERVAGQRFVIDVTVWIDLAEAANSDDLADTYDYVRLASRAAEIVAGPPRKLIETVGAEIADHVMDDQRVHAVEVAVHKPQAPIPQTFDDVAVVIRRSRRGGRGWVVPAGGAV
# Molecular target: the molecule itself
# Experiment: AUC
protein,measurement,value
B1,stoichiometry N,4
